In test [1] the target is hu N(A2-B2)A-avi-His B (human). The test can be described thus: SPR (Biacore T200), CEA construct immobilised, Fab as analyte, 1:1 Langmuir fit. (In SPR one partner is held on a chip, and binding of the other changes the refractive index at the surface.)
For test [2], the target named is human CEACAM5 (CEA) on cells (human) (UniProt P06731). The test can be described thus: flow cytometry on MKN45 cells. Also noted: unit not given beside the values.

Experimental findings from patent US20210253724A1 are described below.

Sequence of hu N(A2-B2)A-avi-His B (human) (P06731 whole entry): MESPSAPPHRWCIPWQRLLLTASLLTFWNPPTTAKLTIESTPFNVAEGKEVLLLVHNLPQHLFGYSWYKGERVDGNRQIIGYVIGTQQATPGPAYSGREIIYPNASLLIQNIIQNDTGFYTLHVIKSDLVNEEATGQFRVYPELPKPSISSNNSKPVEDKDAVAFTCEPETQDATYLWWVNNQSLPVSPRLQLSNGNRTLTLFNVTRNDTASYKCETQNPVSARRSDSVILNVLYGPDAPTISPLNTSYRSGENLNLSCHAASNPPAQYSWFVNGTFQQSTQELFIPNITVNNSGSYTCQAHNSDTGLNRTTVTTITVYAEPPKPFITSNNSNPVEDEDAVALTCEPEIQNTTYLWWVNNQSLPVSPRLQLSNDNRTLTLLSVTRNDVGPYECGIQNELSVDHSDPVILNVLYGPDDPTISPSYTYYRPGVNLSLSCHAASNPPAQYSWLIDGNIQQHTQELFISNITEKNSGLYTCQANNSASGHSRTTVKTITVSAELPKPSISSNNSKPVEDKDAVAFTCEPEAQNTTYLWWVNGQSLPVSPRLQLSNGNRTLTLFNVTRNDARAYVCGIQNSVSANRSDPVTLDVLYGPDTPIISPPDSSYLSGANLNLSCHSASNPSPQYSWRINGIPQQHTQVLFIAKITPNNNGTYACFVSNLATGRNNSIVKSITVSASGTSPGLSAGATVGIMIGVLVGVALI
Sequence of human CEACAM5 (CEA) on cells (human) (P06731 35-685 E398K limits assumed): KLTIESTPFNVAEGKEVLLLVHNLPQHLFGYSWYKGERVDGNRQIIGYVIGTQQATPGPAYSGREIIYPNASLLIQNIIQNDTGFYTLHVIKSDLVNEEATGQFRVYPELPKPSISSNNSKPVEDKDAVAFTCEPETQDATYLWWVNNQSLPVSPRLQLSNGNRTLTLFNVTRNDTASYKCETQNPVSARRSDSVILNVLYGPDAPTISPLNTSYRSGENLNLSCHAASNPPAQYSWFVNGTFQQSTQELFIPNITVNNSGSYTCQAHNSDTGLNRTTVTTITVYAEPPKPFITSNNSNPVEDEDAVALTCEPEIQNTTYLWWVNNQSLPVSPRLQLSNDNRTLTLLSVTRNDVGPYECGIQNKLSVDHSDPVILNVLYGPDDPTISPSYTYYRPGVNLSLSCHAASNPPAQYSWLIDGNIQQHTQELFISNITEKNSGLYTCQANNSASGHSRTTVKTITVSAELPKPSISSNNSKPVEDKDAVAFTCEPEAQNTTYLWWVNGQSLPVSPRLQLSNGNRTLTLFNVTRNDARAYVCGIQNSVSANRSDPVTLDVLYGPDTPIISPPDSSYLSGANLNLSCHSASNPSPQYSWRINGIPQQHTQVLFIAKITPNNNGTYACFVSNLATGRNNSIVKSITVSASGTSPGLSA

B1: P1AE0289 CEA (A5B7) Fab (parental murine antibody) (Fab, V domains shown)
VH: EVKLVESGGGLVQPGGSLRLSCATSGFTFTDYYMNWVRQPPGKALEWLGFIGNKANGYTTEYSASVKGRFTISRDKSQSILYLQMNTLRAEDSATYYCTRDRGLRFYFDYWGQGTTLTVSS
VL: QTVLSQSPAILSASPGEKVTMTCRASSSVTYIHWYQQKPGSSPKSWIYATSNLASGVPARFSGSGSGTSYSLTISRVEAEDAATYYCQHWSSKPPTFGGGTKLEIK
B1 yielded a Kd in test [1] of 0.559 nM.

B2: P1AE4135 Fab derived from P1AE2164 (Fab, V domains shown)
VH: EVQLLESGGGLVQPGGSLRLSCAASGFTFTDYYMNWVRQAPGKGLEWLGFIGNKANGYTTEYSASVKGRFTISRDKSKNTLYLQMNSLRAEDTATYYCTRDRGLRFYFDYWGQGTTVTVSS
VL: QTVLTQSPATLSLSPGERATLSCRASSSVTYIHWYQQKPGSSPKSWIYATSNLASGIPARFSGSGSGTDYTLTISSLEPEDFAVYYCQHWSSKPPTFGQGTKLEIK
Regarding B2, in test [1], the dissociation constant (Kd) is 1.7 nM.

B3: P1AE4143 Fab derived from P1AE2182 (Fab, V domains shown)
VH: EVQLLESGGGLVQPGGSLRLSCAASGFTFTDYYMNWVRQAPGKGLEWVGFIGNKANGYTTEYSASVKGRFTISRDKSKNTLYLQMNSLRAEDTAVYYCARDRGLRFYFDYWGQGTTVTVSS
VL: EIVLTQSPATLSLSPGERATLSCRASSSVTYIHWYQQKPGQAPRSWIYATSNLASGIPARFSGSGSGTDFTLTISSLEPEDFAVYYCQHWSSKPPTFGQGTKLEIK
For B3, in test [1], the Kd was determined as 2.92 nM.

B4: P1AE4142 Fab derived from P1AE2181 (Fab, V domains shown)
VH: EVQLLESGGGLVQPGGSLRLSCAASGFTFTDYYMNWVRQAPGKGLEWVGFIGNKANGYTTEYSASVKGRFTISRDKSKNTLYLQMNSLRAEDTAVYYCARDRGLRFYFDYWGQGTTVTVSS
VL: EIVLTQSPATLSLSPGERATLSCRASSSVTYIHWYQQKPGSSPKSWIYATSNLASGIPARFSGSGSGTDFTLTISSLEPEDFAVYYCQHWSSKPPTFGQGTKLEIK
Molecule B4 returned a Kd in test [1] of 2.64 nM.

B5: P1AE4139 Fab derived from P1AE2176 (Fab, V domains shown)
VH: EVQLLESGGGLVQPGGSLRLSCAASGFTFTDYYMNWVRQAPGKGLEWVGFIGNKANGYTTEYSASVKGRFTISRDNSKNTLYLQMNSLRAEDTAVYYCTRDRGLRFYFDYWGQGTTVTVSS
VL: EIVLTQSPATLSLSPGERATLSCRASSSVTYIHWYQQKPGSSPKSWIYATSNLASGIPARFSGSGSGTDFTLTISSLEPEDFAVYYCQHWSSKPPTFGQGTKLEIK
B5 came in with a dissociation constant Kd in test [1] of 7.58 nM.

B6: P1AE4140 Fab derived from P1AE2177 (Fab, V domains shown)
VH: EVQLLESGGGLVQPGGSLRLSCAASGFTFTDYYMNWVRQAPGKGLEWVGFIGNKANGYTTEYSASVKGRFTISRDNSKNTLYLQMNSLRAEDTAVYYCTRDRGLRFYFDYWGQGTTVTVSS
VL: EIVLTQSPATLSLSPGERATLSCRASSSVTYIHWYQQKPGQAPRSWIYATSNLASGIPARFSGSGSGTDFTLTISSLEPEDFAVYYCQHWSSKPPTFGQGTKLEIK
Regarding B6, the Kd in test [1] was 7.62 nM.

B7: P1AE4138 Fab derived from P1AE2167 (Fab, V domains shown)
VH: EVQLLESGGGLVQPGGSLRLSCAASGFTFTDYYMNWVRQAPGKGLEWLGFIGNKANGYTTEYSASVKGRFTISRDKSKNTLYLQMNSLRAEDTATYYCTRDRGLRFYFDYWGQGTTVTVSS
VL: EIVLTQSPATLSLSPGERATLSCRASSSVTYIHWYQQKPGQAPRSWIYATSNLASGIPARFSGSGSGTDFTLTISSLEPEDFAVYYCQHWSSKPPTFGQGTKLEIK
On to B7, for which the Kd in test [1] came out at 1.47 nM.

B8: P1AE4136 Fab derived from P1AE2165 (Fab, V domains shown)
VH: EVQLLESGGGLVQPGGSLRLSCAASGFTFTDYYMNWVRQAPGKGLEWLGFIGNKANGYTTEYSASVKGRFTISRDKSKNTLYLQMNSLRAEDTATYYCTRDRGLRFYFDYWGQGTTVTVSS
VL: QTVLTQSPATLSLSPGERATLSCRASSSVTYIHWYQQKPGQAPRLLIYATSNLASGIPARFSGSGSGTDFTLTISSLEPEDFAVYYCQHWSSKPPTFGQGTKLEIK
B8: the dissociation constant Kd in test [1] came to 1.25 nM.

B9: P1AE4141 Fab derived from P1AE2179 (Fab, V domains shown)
VH: EVQLLESGGGLVQPGGSLRLSCAASGFTFTDYYMNWVRQAPGKGLEWVGFIGNKANGYTTEYSASVKGRFTISRDKSKNTLYLQMNSLRAEDTAVYYCARDRGLRFYFDYWGQGTTVTVSS
VL: QTVLTQSPATLSLSPGERATLSCRASSSVTYIHWYQQKPGSSPKSWIYATSNLASGIPARFSGSGSGTDYTLTISSLEPEDFAVYYCQHWSSKPPTFGQGTKLEIK
For the molecule B9, the Kd in test [1] is 1.83 nM.

B10: P1AE4137 Fab derived from P1AE2166 (Fab, V domains shown)
VH: EVQLLESGGGLVQPGGSLRLSCAASGFTFTDYYMNWVRQAPGKGLEWLGFIGNKANGYTTEYSASVKGRFTISRDKSKNTLYLQMNSLRAEDTATYYCTRDRGLRFYFDYWGQGTTVTVSS
VL: EIVLTQSPATLSLSPGERATLSCRASSSVTYIHWYQQKPGSSPKSWIYATSNLASGIPARFSGSGSGTDFTLTISSLEPEDFAVYYCQHWSSKPPTFGQGTKLEIK
B10: the Kd in test [1] was 11.3 nM.

B11: P1AE3108 (antibody, IgG1, V domains shown)
VH: QVQLVQSGAEVKKPGSSVKVSCKASGFNIKDSYMHWVRQAPGQGLEWMGWIDPENGDTEYAPKFQGRVTITTDESTSTAYMELSSLRSEDTAVYYCNEGTPTGPYYFDYWGQGTLVTVSS
VL: EIQMTQSPSSLSASVGDRVTITCRASQSISSYMHWYQQKPGKAPKLLIYSTSNLASGVPSRFSGSGSGTDFTLTISSLQPEDFATYYCQQRSSYPLTFGGGTKLEIK
Consider B11, for which the AUC in test [2] stood at 2090.

For orientation: Kd means the constant that tells how readily two partners part at equilibrium.
